Measurements as given in PMC6140455.

How the values were obtained:
Assay in all cases: fluorescence anisotropy
[1] = molecular target: T1, YTHDC2 YTH domain W1360A (Homo sapiens, UniProt Q9H6S0 1277-1430, W1360A)
T1 sequence: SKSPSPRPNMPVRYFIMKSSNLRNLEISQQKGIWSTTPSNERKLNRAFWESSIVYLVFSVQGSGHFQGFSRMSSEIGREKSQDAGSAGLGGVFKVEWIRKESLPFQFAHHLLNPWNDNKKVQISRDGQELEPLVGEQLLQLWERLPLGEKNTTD

[2] = molecular target: T2, YTHDC2 YTH domain W1310A (Homo sapiens, UniProt Q9H6S0 1277-1430, W1310A)
T2 sequence: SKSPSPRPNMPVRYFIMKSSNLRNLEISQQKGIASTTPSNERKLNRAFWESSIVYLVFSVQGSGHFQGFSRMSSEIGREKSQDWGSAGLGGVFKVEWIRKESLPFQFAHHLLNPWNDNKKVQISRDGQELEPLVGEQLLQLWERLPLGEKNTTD

[3] = molecular target: T3, YTHDC2 YTH domain (Homo sapiens, UniProt Q9H6S0 1277-1430)
T3 sequence: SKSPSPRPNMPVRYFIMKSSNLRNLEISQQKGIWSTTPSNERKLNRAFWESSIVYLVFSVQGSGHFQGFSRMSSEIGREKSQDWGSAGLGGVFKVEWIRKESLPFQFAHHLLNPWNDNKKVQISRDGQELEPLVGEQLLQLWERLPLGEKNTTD

CCGGACUGU (ssRNA, N6-methyladenosine at position 5) [GGm6ACU 9-nt RNA]
binding result [1]: no binding | binding result [2]: no binding | Kd [3]: 3.2 ± 0.3 µM
